Experimental data taken from patent US8735553 (BEIGENE SWITZERLAND, dated 2014).
Changes are numbered by the printed parent chain. Read-outs that look alike come from different tables or passages of the source. Each block holds one binder with its values, some of them ahead of it.

Assays:
[1] = molecular target: T1, wild-type human PD-1 recombinant protein (PD-1/His or PD-1/Fc, not said which) (human, UniProt Q15116 21-168); test: ELISA on coated recombinant PD-1
T1 construct: also called WT PD-1

[2] = molecular target: T2, human PD-1 expressed on cells (human, UniProt Q15116 25-288); test: cell-based or functional assay
[3] = molecular target: T2, human PD-1 expressed on cells; test: FACS on HuT78/PD-1 cells, MFI against Ab concentration (unit taken from the x axis, µg/ml)
Protocol: To block human Fc receptors, cells were pre-incubated with human IgG (20 μg/ml) (Cat. No. H11296, LifeHolder, USA and Shanghai, China).
Dose-dependent reaction curve of murine mAbs binding to human PD-1 expressed on live cells by FACS analyses. […] MFI stands for mean fluorescence intensity. HuT78/PD-1 cells were suspended in 96-well plate at 5 ×10^4 cells per well for FACS.

[4] = molecular target: P3Z chimeric PD-1 receptor (human); test: cell-based or functional assay
[5] = molecular target: T2, human PD-1 expressed on cells; test: cell-based or functional assay; remark: listed apart in the source
[6] = molecular target: T2, human PD-1 expressed on cells; test: cell-based or functional assay; remark: listed apart in the source
PD-1-EC/Fc = molecular target: T3, PD-1-EC/Fc (human, UniProt Q15116 21-168); test: SPR (BIAcore T-200), mAb captured on anti-mouse Fc chip, PD-1/Fc injected
T3 construct: AA 1-168 includes the signal peptide; Made in 293-F cells; also called PD-1/Fc
Protocol: Anti-mouse Fc CM5 biosensor chip (GE Healthcare) was generated using a standard primary amine coupling protocol. […] Association rates (K_a or $kon$) and dissociation rates (K_d or $koff$) were calculated using the one-to-one Langmuir binding model (BIA Evaluation Software, GE Life Sciences). The equilibrium dissociation constant (K_D) was calculated as the ratio $koff/kon$.

[7] = molecular target: T2, human PD-1 expressed on cells; test: FACS on PD-1-expressing cells
[8] = molecular target: T2, human PD-1 expressed on cells; test: cell-based or functional assay; remark: listed apart in the source
[9] = molecular target: P3Z chimeric PD-1 receptor (human); test: cell-based or functional assay; remark: listed apart in the source
[10] = molecular target: P3Z chimeric PD-1 receptor (human); test: cell-based or functional assay; remark: listed apart in the source
[11] = molecular target: T2, human PD-1 expressed on cells; test: cell-based or functional assay; remark: listed apart in the source
human FcγRI = molecular target: T4, human FcγRI (human, UniProt P12314 16-374); test: flow cytometry, FcγR+ HEK293 cells
T4 construct: whole, on cells; also called FcγR1
Protocol: (§1) Binding of various IgG4 mutants to FcγRs was determined by flow cytometry. In brief, a series of HEK293 transfectants expressing human FcγRs were established. These transfectants expressed FcγRI, FcγRIIA, FcγRIIB or FcγRIIIA Multi-subunit FcγRs (i.e., FcγR1 and FcγRIIIA) were co-expressed with FcRγ. Polymorphic variants (i.e., FcγRIIA H131 and R131, FcγRIIIA F158 and V158) were also included.

human FcγRIIIA (V158) = molecular target: T5, human FcγRIIIA (V158) (human, UniProt P08637 17-254); test: flow cytometry, FcγR+ HEK293 cells
T5 construct: whole, on cells; also called CD16 (V158 allele)
Protocol: as §1

human FcγRIIIA (F158) = molecular target: T6, human FcγRIIIA (F158) (human, UniProt P08637 17-254); test: flow cytometry, FcγR+ HEK293 cells
T6 construct: whole, on cells
Protocol: as §1

[12] = molecular target: T2, human PD-1 expressed on cells; test: cell-based or functional assay; remark: listed apart in the source
[13] = molecular target: P3Z chimeric PD-1 receptor (human); test: cell-based or functional assay; remark: listed apart in the source
[14] = molecular target: T2, human PD-1 expressed on cells; test: FACS on PD-1-expressing cells; remark: listed apart in the source
[15] = molecular target: T2, human PD-1 expressed on cells; test: cell-based or functional assay; remark: listed apart in the source
[16] = molecular target: P3Z chimeric PD-1 receptor (human); test: cell-based or functional assay; remark: listed apart in the source
[17] = molecular target: T2, human PD-1 expressed on cells; test: FACS on PD-1-expressing cells, goat anti-human IgG detection

T2 sequence (Q15116 25-288): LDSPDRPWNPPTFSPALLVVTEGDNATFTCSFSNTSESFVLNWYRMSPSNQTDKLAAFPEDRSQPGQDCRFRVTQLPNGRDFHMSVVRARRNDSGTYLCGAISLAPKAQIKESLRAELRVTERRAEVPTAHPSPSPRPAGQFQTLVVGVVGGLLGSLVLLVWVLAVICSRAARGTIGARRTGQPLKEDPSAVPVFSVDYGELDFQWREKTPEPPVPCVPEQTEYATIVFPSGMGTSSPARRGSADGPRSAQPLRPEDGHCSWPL
Sequence of P3Z chimeric PD-1 receptor (human) (chain, as listed by the source mutant limits assumed): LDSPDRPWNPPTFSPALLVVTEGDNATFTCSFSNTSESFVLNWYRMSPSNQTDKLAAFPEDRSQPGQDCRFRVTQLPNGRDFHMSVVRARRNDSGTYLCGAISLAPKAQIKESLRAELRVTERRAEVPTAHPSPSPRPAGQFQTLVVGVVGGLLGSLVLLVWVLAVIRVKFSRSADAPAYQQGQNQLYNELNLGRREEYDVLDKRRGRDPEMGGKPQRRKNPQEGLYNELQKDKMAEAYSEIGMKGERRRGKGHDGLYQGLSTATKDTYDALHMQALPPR
T1 sequence (Q15116 21-168 limits assumed): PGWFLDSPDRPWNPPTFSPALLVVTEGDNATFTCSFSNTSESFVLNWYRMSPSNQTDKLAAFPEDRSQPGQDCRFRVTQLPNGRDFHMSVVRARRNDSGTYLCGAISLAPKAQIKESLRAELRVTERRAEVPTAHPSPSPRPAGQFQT
T3 sequence (Q15116 21-168 limits assumed): as above
T5 sequence (P08637 17-254 F176V limits assumed): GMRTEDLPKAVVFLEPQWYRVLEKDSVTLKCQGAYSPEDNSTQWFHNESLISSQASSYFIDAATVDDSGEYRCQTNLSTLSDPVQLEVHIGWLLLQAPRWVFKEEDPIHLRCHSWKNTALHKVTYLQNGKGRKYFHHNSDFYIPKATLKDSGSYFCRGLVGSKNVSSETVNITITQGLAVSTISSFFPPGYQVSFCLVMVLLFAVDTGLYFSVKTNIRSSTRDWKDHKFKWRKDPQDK
T4 sequence (P12314 16-374): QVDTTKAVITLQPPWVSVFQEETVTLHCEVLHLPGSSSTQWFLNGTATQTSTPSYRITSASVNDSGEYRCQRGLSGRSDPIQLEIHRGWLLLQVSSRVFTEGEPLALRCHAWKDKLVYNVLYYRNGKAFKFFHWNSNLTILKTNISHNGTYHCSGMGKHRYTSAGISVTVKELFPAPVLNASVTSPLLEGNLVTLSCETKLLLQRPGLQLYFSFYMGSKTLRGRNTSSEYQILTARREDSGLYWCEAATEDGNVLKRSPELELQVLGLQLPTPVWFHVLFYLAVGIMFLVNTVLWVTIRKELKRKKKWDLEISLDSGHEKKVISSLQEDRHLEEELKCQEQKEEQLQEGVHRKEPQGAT
T6 sequence (P08637 17-254): as the sequence (P08637 17-254 F176V limits assumed) above, with V160F counted along it

EC50 [1]: 0.088 µg/mL
B1: hu326-3G1 (antibody, V domains shown)
VH: QVQLVQSGPELKKPGASVKVSCKASGYTFTNYGMNWVRQAPGQGLKWMGWINNNNGEPTYAQDFRGRFVFSLDTSASTAYLQISSLKTEDTAVYYCARDVMDYWGQGTLVTVSS
VL: DIVLTQSPASLAVSPGQRATITCRASESVDNYGYSFMHWYQQKPGQPPKLLIYRASNLESGVPARFSGSGSRTDFTLTINPVEANDTANYYCQQSKEYPTFGGGTKVEIK
notes: Humanized mAb

IL-2 release, EC50 (HuT78/PD-1 + HEK293/OS8/PD-L1) [2]: 0.053 µg/mL
EC50 [3]: 0.126 µg/mL
Inhibition of IL-2 secretion, IC50 (HuT78/P3Z + HEK293/PD-L1) [4]: 0.039 µ/ml
IFN-γ secreted, EC50 (NK92MI/PD-1 + SK-MES-1/PD-L1) [5]: 0.2 µg/mL
Kd (PD-1-EC/Fc): 0.324 nM
koff (PD-1-EC/Fc): 7.79e-05 s⁻¹
kon (PD-1-EC/Fc): 240000 M⁻¹ s⁻¹
EC50 [7]: 0.126 µg/mL
Top MFI [7]: 195 MFI
Assay-1 IL-2 release, EC50 (HuT78/PD-1 + HEK293/OS8/PD-L1) [8]: 0.038 µg/mL
Assay-1 IL-2 release, Top line (HuT78/PD-1 + HEK293/OS8/PD-L1) [8]: 1150 pg/mL
Assay-2 IL-2 release, IC50 (HuT78/P3Z + HEK293/PD-L1) [9]: 0.14 µg/mL
Assay-2 IL-2 release, Max inhibition (HuT78/P3Z + HEK293/PD-L1) [9]: 96.9%
Inhibition of IL-2 secretion, IC50 (HuT78/P3Z + HEK293/PD-L2) [10]: 0.018 µg/mL
IL-2 release, EC50 (HuT78/PD-1 + HEK293/OS8/PD-L2) [11]: 0.038 µg/mL
B2: murine mAb 326 (antibody, V domains shown)
VH: QIQLVQSGPELKKPGETVKISCKASGYTFTNYGMNWVKQAPGKGLKWMGWINNNNGEPTYAEEFKGRFAFSLETSASTAYLQINNLKNEDTATYFCARDVMDYWGQGTSVTVSS
VL: B1 VL with P15L, T22S, K49Q, V62I, D74G, N85D, T87V, N89T, V107L, I109V
notes: Murine hybridoma antibody; also called mu326
Cytotoxicity of NK92MI/PD-1 cells against SK-MES-1/PD-L1, EC50 [6]: 0.37 µg/mL

IL-2 release in HuT78/PD-1, EC50 [12]: 0.213 µg/mL
IL-2 release in HuT78/PD-1, Top line [12]: 987 pg/mL
IL-2 release in HuT78/P3Z, IC50 [13]: 0.087 µg/mL
IL-2 release in HuT78/P3Z, Max inhibition [13]: 92.4%
EC50 [7]: 0.117 µg/mL
Top MFI [7]: 129 MFI
Assay-1 IL-2 release, EC50 (HuT78/PD-1 + HEK293/OS8/PD-L1) [8]: 0.112 µg/mL
Assay-1 IL-2 release, Top line (HuT78/PD-1 + HEK293/OS8/PD-L1) [8]: 1140 pg/mL
Assay-2 IL-2 release, IC50 (HuT78/P3Z + HEK293/PD-L1) [9]: 0.1 µg/mL
Assay-2 IL-2 release, Max inhibition (HuT78/P3Z + HEK293/PD-L1) [9]: 84.4%
EC50 [14]: 0.317 µg/mL
B4: hu326-1 (antibody, IgG2, V domains shown, not shown: a dimerising Fc or GST)
VH: B1 VH with P9S, K46E, D63G, Y95F, L109T
VL: DIVLTQSPASLAVSPGQRATITCRASESVDNYGYSFMHWYQQKPGQPPKLLIYRASNLESGVPARFSGSGSRTDFTLTINPVEANDTANYYCQQSKEYPTFGGGTKVEIKR
notes: domain: Ig kappa C-region; Initial humanized version, IgG2 / kappa

EC50 [1]: 0.066 µg/mL
B7: hu317-4B2 (antibody, V domains shown)
VH: QVQLQESGPGLVKPSETLSLTCTVSGFSLTSYGVHWIRQPPGKGLEWIGVIYAGGSTNYNPSLKSRVTISKDTSKNQFSLKLSSVTAADTAVYYCARAYGNYWYIDVWGQGTTVTVSS
VL: DIVMTQSPDSLAVSLGERATINCKSSESVSNDVAWYQQKPGQPPKLLINYAFHRFTGVPDRFSGSGYGTDFTLTISSLQAEDVAVYYCHQAYSSPYTFGQGTKLEIK
notes: Humanized mAb

Assay-1 IL-2 release, EC50 (HuT78/PD-1 + HEK293/OS8/PD-L1) [15]: 0.08 µg/mL
Assay-1 IL-2 release, Top line (HuT78/PD-1 + HEK293/OS8/PD-L1) [15]: 294 pg/mL
Assay-2 IL-2 release, IC50 (HuT78/P3Z + HEK293/PD-L1) [16]: 0.1 µg/mL
Assay-2 IL-2 release, Max inhibition (HuT78/P3Z + HEK293/PD-L1) [16]: 99%
EC50 [17]: 0.36 µg/mL
B9: ch317 (antibody, human IgG2, V domains shown, not shown: a dimerising Fc or GST)
VH: QVQLKESGPGLVAPSKNLSITCTVSGFSLTSYGVHWIRQPPGKGLEWLGVIWAGGSTNYNSALMSRLSISKDNSRSQVFLRMNSLQTDDTAMYYCARAYGNYWYIDVWGAGTTVTVSS
VL: DIVMTQTPKFLLVSAGDRVTITCKASQSVSNDVAWYQQKPGQSPKLLINYAFHRFTGVPDRFTGSGYGTDFIFTISTVQAEDLAVYFCHQAYSSPYTFGGGTKLEMKR
notes: domain: Ig kappa C-region; Murine VH and Vκ of mu317 on human IgG2 / kappa

More lines, now with the values behind:

B3: hu326-4A3/IgG4mt10 (antibody)
heavy: QVQLVQSGSELKKPGASVKVSCKASGYTFTNYGMNWVRQAPGQGLKWMGWINNNNAEPTYAQDFRGRFVFSLDTSASTAYLQISSLKTEDTAVYYCARDVMDYWGQGTLVTVSSASTKGPSVFPLAPCSRSTSESTAALGCLVKDYFPEPVTVSWNSGALTSGVHTFPAVLQSSGLYSLSSVVTVPSSSLGTKTYTCNVDHKPSNTKVDKRVESKYGPPCPPCPAPPVAGGPSVFLFPPKPKDTLMISRTPEVTCVVVAVSQEDPEVQFNWYVDGVEVHNAKTKPREEQFNSTYRVVSVLTVVHQDWLNGKEYKCKVSNKGLPSSIEKTISKAKGQPREPQVYTLPPSQEEMTKNQVSLTCLVKGFYPSDIAVEWESNGQPENNYKTTPPVLDSDGSFFLYSKLTVDKSRWQEGNVFSCSVMHEALHNHYTQKSLSLSLGK
VL: B1 VL with R72G, N85E
notes: Light chain constant region not restated for this format; copies: 2 + 2
binding result (human FcγRI): no binding
binding result (human FcγRIIIA (V158)): no binding
binding result (human FcγRIIIA (F158)): no binding

B5: hu317-1 (antibody, IgG2, V domains shown, not shown: a dimerising Fc or GST)
VH: B7 VH with I48L, Y52W, V67L, T73N, N76S, F78V, L82M
VL: DIVMTQSPDSLAVSLGERATINCKASQSVSNDVAWYQQKPGQPPKLLINYAFHRFTGVPDRFSGSGYGTDFTLTISSLQAEDVAVYYCHQAYSSPYTFGGGTKLEIKR
notes: as for B4
Assay-1 IL-2 release, EC50 (HuT78/PD-1 + HEK293/OS8/PD-L1) [15]: 0.09 µg/mL
Assay-1 IL-2 release, Top line (HuT78/PD-1 + HEK293/OS8/PD-L1) [15]: 386 pg/mL
Assay-2 IL-2 release, IC50 (HuT78/P3Z + HEK293/PD-L1) [16]: 0.11 µg/mL
Assay-2 IL-2 release, Max inhibition (HuT78/P3Z + HEK293/PD-L1) [16]: 99.8%
EC50 [17]: 0.46 µg/mL

B6: hu317-4B5 (antibody, V domains shown)
VH: B7 VH with F78V
VL: B7 VL
notes: Humanized mAb
EC50 [1]: 0.057 µg/mL

B8: hu317-4B6/IgG4mt10 (antibody)
heavy: QVQLQESGPGLVKPSETLSLTCTVSGFSLTSYGVHWIRQPPGKGLEWIGVIYADGSTNYNPSLKSRVTISKDTSKNQVSLKLSSVTAADTAVYYCARAYGNYWYIDVWGQGTTVTVSSASTKGPSVFPLAPCSRSTSESTAALGCLVKDYFPEPVTVSWNSGALTSGVHTFPAVLQSSGLYSLSSVVTVPSSSLGTKTYTCNVDHKPSNTKVDKRVESKYGPPCPPCPAPPVAGGPSVFLFPPKPKDTLMISRTPEVTCVVVAVSQEDPEVQFNWYVDGVEVHNAKTKPREEQFNSTYRVVSVLTVVHQDWLNGKEYKCKVSNKGLPSSIEKTISKAKGQPREPQVYTLPPSQEEMTKNQVSLTCLVKGFYPSDIAVEWESNGQPENNYKTTPPVLDSDGSFFLYSKLTVDKSRWQEGNVFSCSVMHEALHNHYTQKSLSLSLGK
VL: B7 VL
notes: as for B3
binding result (human FcγRI): no binding
binding result (human FcγRIIIA (V158)): no binding
binding result (human FcγRIIIA (F158)): no binding
